Details in all cases: both partners purified
Assay [1] addresses T1, G3BP2 NTF2 domain (human, UniProt Q9UN86 11-133).
T1 sequence (looked up): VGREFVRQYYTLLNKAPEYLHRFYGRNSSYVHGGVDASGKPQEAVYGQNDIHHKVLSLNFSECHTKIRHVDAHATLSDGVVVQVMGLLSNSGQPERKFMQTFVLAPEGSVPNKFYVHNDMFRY

Assay [2] concerns the target Ezrin FERM domain (human, UniProt P15311 2-296).
Assay [3] deals with T2, Radixin FERM domain (human, UniProt P35241 5-295).
T2 construct: also called RDX

One may read the IC50 as the concentration that inhibits the measured activity by half. In general, Ki refers to a measure of affinity in units of concentration, obtained from inhibition or displacement. A low value points to higher affinity.

Chain of Ezrin FERM domain (P15311 2-296): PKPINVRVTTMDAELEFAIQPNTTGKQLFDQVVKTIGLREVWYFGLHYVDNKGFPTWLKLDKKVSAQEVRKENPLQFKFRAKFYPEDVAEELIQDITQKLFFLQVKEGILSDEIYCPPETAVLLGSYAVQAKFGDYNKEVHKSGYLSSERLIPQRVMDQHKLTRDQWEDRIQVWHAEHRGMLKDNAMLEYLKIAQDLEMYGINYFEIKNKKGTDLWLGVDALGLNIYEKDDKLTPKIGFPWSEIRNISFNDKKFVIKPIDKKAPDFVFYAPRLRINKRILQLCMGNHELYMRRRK
T2 sequence (P35241 5-295): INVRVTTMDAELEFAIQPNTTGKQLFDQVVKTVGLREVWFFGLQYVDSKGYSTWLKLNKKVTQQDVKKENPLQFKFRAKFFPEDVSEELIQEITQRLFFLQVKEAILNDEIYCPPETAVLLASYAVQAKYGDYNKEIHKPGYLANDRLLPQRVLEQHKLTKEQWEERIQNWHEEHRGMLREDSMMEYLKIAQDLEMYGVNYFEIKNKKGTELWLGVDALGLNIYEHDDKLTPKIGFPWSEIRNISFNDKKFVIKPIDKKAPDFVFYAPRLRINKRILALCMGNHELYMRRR

With QGKPLEFGATSAALQY [NSP3 peptide 956-971 (Sars-CoV2)], in assay [1], inhibition was half-maximal at 100 µM (IC50) and the Ki was 35 µM.

In assay [2], VETSNSFDVLKSEDAQY [NSP3 peptide 2019-2034 (Sars-CoV2)] displayed an IC50 of 1530 µM and a Ki of 37.6 µM. The IC50 in assay [3] turned out to be 1530 µM.

The values above are taken from article PMC8605023 (Nature Communications, 2021).
